# Experimental data taken from US7101969 (TARGANTA THERAPEUTICS, dated 2006).
# B1: Gal4 activation domain fused to S. aureus DnaI amino acids 64 to 313 (other)
# chain: YKDQQKHYDGHKFADCPNFVKGHVPELYVDNNRIKIRYLQCPCKIKYDEERFEAELITSHHMQRDTLNAKLKDIYMNHRDRLDVAMAADDICTAITNGEQVKGLYLYGPFGTGKSFILGAIANQLKSKKVRSTIIYLPEFIRTLKGGFKDGSFEKKLHRVREANILMLDDIGAEEVTPWVRDEVIGPLLHYRMVHELPTFFSSNFDYSELEHHLAMTRDGEEKTKAARIIERVKSLSTPYFLSGENFRNN
# B2: Gal4 activation domain (GAD) fused to full-length S. aureus DnaI (pGAD dnaI) (other)
# chain: MGGGQSIMKQFKSIINTSQDFEKRIEKIKKEVINDPDVKQFLEAHRAELTNAMIDEDLNVLQEYKDQQKHYDGHKFADCPNFVKGHVPELYVDNNRIKIRYLQCPCKIKYDEERFEAELITSHHMQRDTLNAKLKDIYMNHRDRLDVAMAADDICTAITNGEQVKGLYLYGPFGTGKSFILGAIANQLKSKKVRSTIIYLPEFIRTLKGGFKDGSFEKKLHRVREANILMLDDIGAEEVTPWVRDEVIGPLLHYRMVHELPTFFSSNFDYSELEHHLAMTRDGEEKTKAARIIERVKSLSTPYFLSGENFRNN
# B3: S. aureus DnaI (native protein from S. aureus cell extract) (other)
# chain: B2 chain
# notes: also called DnaI homolog; DnaI related protein
# B4: Gal4 activation domain fused to S. aureus DnaI amino acids 150 to 313 (other)
# chain: AADDICTAITNGEQVKGLYLYGPFGTGKSFILGAIANQLKSKKVRSTIIYLPEFIRTLKGGFKDGSFEKKLHRVREANILMLDDIGAEEVTPWVRDEVIGPLLHYRMVHELPTFFSSNFDYSELEHHLAMTRDGEEKTKAARIIERVKSLSTPYFLSGENFRNN
# B5: GST/ORF104 fusion protein (other)
# chain: MVTKEFLKTKLECSDMYAQKLIDEAQGDENRLYDLFIQKLAERHTRPAIVEY
# notes: also called GST-fusion of ORF 104; not shown: GST moiety encoded by expression vector pGEX 4T-1 (Pharmacia)
# B6: Gal4 activation domain fused to phage 77 ORF104 (pGAD77ORF104) (other)
# chain: B5 chain
# B7: bacteriophage 77 ORF 104 protein (GST removed) (other)
# chain: B5 chain
# notes: also called phage 77 ORF 104 gene product
# Columns and labels:
# [1] = target: Gal4 DNA binding domain fused to phage 77 ORF104 (pGBK77ORF104) (yeast; Staphylococcus aureus …, UniProt P04386 1-147); assay: yeast two-hybrid: growth of co-transformants on THAL minus SD medium; all six sectors show growth on TL minus SD medium
# [2] = target: T1, GST (UniProt P08515 1-218 = GST); assay: affinity chromatography: S. aureus extract (French pressure cell and sonication) on micro-columns with GST cross-linked at 0 to 2.0 mg/ml resin; eluate with 1% SDS; 12.5% SDS-PAGE, silver stain
# T1 construct: also called GST ligand (control)
# T1 sequence (P08515 whole entry): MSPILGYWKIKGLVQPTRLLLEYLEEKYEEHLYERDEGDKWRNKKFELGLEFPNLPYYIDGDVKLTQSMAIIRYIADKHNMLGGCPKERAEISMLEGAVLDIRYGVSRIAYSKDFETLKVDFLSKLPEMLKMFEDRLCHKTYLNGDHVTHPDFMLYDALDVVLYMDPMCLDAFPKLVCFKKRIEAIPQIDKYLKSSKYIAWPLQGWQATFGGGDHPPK
# [3] = target: B3; assay: affinity chromatography: S. aureus extract (French pressure cell and sonication) on micro-columns with ligand cross-linked at 0, 0.1, 0.5, 1.0 and 2.0 mg/ml resin; eluate with 1% Triton X-100; 12.5% SDS-PAGE, silver stain
# [4] = target: Gal4 DNA binding domain fused to full-length S. aureus DnaI (pGBK dnaI) (yeast; Staphylococcus aureus, UniProt P04386 1-147); assay: yeast two-hybrid: growth of co-transformants on SD plate without Trp, Leu, His and Ade (HIS3 and ADE2 reporters); all six sectors grow on the SD plate without Trp and Leu
# [5] = target: B3; assay: affinity chromatography of S. aureus extract, elution with 1% Triton X-100 and 1% SDS, silver stain, MALDI-ToF identification
binder,measurement,setting,value
B1,binding result,[1],binds
B2,binding result,[1],binds
B3,binding result,[2],no binding (tested: 2.0 mg/ml resin)
B4,binding result,[1],binds
B5,binding result,[3],binds
B6,binding result,[4],binds
B7,binding result,[5],binds
